Ratio to parent data for 2 molecules are collected here from article PMC8573869.

Assay [1] concerns the target T1, endogenous long reticulon-3 (RTN3L), O95197.
T1 chain: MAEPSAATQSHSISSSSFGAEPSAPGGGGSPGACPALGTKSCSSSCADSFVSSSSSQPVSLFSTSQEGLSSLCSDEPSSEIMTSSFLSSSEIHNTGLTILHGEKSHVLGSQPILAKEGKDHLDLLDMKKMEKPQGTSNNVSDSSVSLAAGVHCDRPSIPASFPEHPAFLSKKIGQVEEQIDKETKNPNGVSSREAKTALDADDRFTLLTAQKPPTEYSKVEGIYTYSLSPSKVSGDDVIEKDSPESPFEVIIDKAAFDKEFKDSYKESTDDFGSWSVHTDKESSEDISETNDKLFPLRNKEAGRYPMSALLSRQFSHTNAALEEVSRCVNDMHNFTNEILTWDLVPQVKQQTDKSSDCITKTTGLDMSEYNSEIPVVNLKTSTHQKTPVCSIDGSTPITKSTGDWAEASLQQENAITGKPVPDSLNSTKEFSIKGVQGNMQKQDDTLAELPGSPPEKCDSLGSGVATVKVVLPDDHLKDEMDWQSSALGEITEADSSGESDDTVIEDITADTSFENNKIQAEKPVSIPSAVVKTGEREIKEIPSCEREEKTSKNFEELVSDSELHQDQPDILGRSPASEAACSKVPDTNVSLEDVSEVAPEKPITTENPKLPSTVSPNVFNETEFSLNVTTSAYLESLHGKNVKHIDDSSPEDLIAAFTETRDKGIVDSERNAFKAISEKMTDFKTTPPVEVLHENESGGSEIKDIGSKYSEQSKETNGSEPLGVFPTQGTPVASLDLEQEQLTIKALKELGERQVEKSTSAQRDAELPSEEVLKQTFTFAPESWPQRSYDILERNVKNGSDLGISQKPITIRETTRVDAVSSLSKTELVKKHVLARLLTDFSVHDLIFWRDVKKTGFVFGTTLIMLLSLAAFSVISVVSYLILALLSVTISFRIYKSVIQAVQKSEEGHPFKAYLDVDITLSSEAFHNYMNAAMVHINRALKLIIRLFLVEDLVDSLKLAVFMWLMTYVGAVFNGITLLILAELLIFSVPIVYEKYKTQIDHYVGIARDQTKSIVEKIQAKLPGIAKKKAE
Nature of the assay: co-immunoprecipitation (anti-FLAG IP, densitometry). The following applies: chain shown with the change; MCF7 cells transfected for 48 h, crosslinking; n = 3; parent: est. 1.0; read off a plot.

Assay [2] concerns the target T2, endogenous family with sequence similarity 134 member B (FAM134B), Q9H6L5.
T2 chain: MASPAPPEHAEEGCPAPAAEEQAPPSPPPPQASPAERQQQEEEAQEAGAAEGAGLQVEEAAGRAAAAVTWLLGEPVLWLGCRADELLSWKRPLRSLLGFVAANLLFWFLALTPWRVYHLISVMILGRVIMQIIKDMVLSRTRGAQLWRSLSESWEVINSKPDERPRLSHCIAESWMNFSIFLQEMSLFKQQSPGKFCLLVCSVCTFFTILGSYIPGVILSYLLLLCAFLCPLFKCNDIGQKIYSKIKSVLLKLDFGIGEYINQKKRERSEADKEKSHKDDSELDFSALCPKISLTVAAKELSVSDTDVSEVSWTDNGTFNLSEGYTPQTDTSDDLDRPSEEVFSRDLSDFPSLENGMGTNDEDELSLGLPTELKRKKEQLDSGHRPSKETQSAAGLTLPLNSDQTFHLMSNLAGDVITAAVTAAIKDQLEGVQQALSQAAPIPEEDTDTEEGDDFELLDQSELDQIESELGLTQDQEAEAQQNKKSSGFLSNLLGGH
The assay is described as above. As to conditions: chain shown with the change; MCF7 cells transfected for 48 h, crosslinking; n = 3; parent: est. 1.0; read off a plot.

B1: FLAG-tagged wild-type Rab32, Q13637 T39N (protein)
chain: MAGGGAGDPGLGAAAAPAPETREHLFKVLVIGELGVGKNSIIKRYVHQLFSQHYRATIGVDFALKVLNWDSRTLVRLQLWDIAGQERFGNMTRVYYKEAVGAFVVFDISRSSTFEAVLKWKSDLDSKVHLPNGSPIPAVLLANKCDQNKDSSQSPSQVDQFCKEHGFAGWFETSAKDNINIEEAARFLVEKILVNHQSFPNEENDVDKIKLDQETLRAENKSQCC
For B1, the ratio to parent in assay [1] is 1.3; in assay [2], 0.75.

B2: FLAG-tagged wild-type Rab32, Q13637 Q85L (protein)
chain: MAGGGAGDPGLGAAAAPAPETREHLFKVLVIGELGVGKTSIIKRYVHQLFSQHYRATIGVDFALKVLNWDSRTLVRLQLWDIAGLERFGNMTRVYYKEAVGAFVVFDISRSSTFEAVLKWKSDLDSKVHLPNGSPIPAVLLANKCDQNKDSSQSPSQVDQFCKEHGFAGWFETSAKDNINIEEAARFLVEKILVNHQSFPNEENDVDKIKLDQETLRAENKSQCC
In the case of B2, the ratio to parent in assay [1] was found to be 3.4; in assay [2] it was 0.95.
